# Source: US20060078953
# Tested on: histone H4 methylated at arginine 3
substance,measurement,value
commercially available skeletal muscle PAD,Western blot staining with antibodies to methylated arginine 3 H4 after PAD treatment,A complete loss of staining with antibodies to this modification was observed following PAD treatment.
